Laboratory results taken from paper PMC8032705, “Identification and characterization of piperine synthase from black pepper, Piper nigrum L” (Communications Biology, 2021).

What was measured:
Assay type in all cases: biochemical, Piper nigrum
[1] = substrate: C1CCNCC1; experiment: HPLC-UV/Vis and LC-MS of piperine (plus isomers) formation; conditions: co-substrate piperoyl-CoA, pH 8.0, 30 mM Tris/HCl, 1 mM DTT
Description: (§1) HPLC-UV/Vis and LC-MS of piperine (plus isomers) formation on piperine synthase (PipBAHD2)

[2] = substrate: CC(C)(COP(=O)(O)OP(=O)(O)OC[C@H]1O[C@@H](n2cnc3c(N)ncnc32)[C@H](O)[C@@H]1OP(=O)(O)O)[C@@H](O)C(=O)NCCC(=O)NCCSC(=O)/C=C/C=C/c1ccc2c(c1)OCO2; experiment: as above; conditions: co-substrate piperidine, pH 8.0, 30 mM Tris/HCl, 1 mM DTT
Description: as §1

[3] = substrate: C1CCNCC1; experiment: HPLC-UV/Vis and LC-MS of piperine isomer formation; conditions: co-substrate piperoyl-CoA, pH 8.0, 30 mM Tris/HCl, 1 mM DTT
Description: (§2) HPLC-UV/Vis and LC-MS of piperine isomer formation on piperamide synthase (PipBAHD1)

[4] = substrate: CC(C)(COP(=O)(O)OP(=O)(O)OC[C@H]1O[C@@H](n2cnc3c(N)ncnc32)[C@H](O)[C@@H]1OP(=O)(O)O)[C@@H](O)C(=O)NCCC(=O)NCCSC(=O)/C=C/C=C/c1ccc2c(c1)OCO2; experiment: HPLC-UV/Vis and LC-MS of piperine isomer formation; conditions: co-substrate piperidine, pH 8.0, 30 mM Tris/HCl, 1 mM DTT
Description: as §2

Row | Protein | Km [1] [mM] | Km [2] [mM] | kcat [2] [s⁻¹] | kcat/Km [2] [M⁻¹ s⁻¹] | Km [3] [mM] | kcat [3] [s⁻¹] | kcat/Km [3] [M⁻¹ s⁻¹] | Km [4] [mM] | kcat [4] [s⁻¹] | kcat/Km [4] [M⁻¹ s⁻¹]
1 | piperine synthase (PipBAHD2) (Piper nigrum) (protein, full-length cDNA from immature fruits, N-terminal His10 tag (pET-16b), E. coli LEMO21, IMAC) MAPSSQLEFNVVRKQPELLPPAEPTPFEWKELSDIDDQDGLRLHISGFFIYPPSTMSNVGRDNVARDIRLGLSKAMVFYYPLAGRIREGPNRKLSVECTGEGIMYCEADADVRLEQFGDIGALSMPFPFMDKVMFETVDDGILGTPLMYFQSTRFICGGIVIAGCYNHAIADGLGFYMFMAAAAQLARGAASPTPLPVWQRERLLSRVPPRVTFIHHEYIHDTPKTETANPLDNEPWPLHSIFFTRVDVAALRAQLPGHLRKSATSFEIISACLWRCRTAALRFAPDELSRLIIAVNARTKFGPPLPQGYYGNSIMLPMVVSEAGKLVLSGLGYAVELVIEAKGKVTEEYVKSVADYLVLNGRPHYVVTNTYLVSDLRQLVEMSKFDWGWGKPAYVGPADVGENAISFLATLKNGEEEGVVVPIRLPESAVGRFKSEVSKMVSFGCLEDVKPNRDGYLSRM | 7.6 ± 0.5 | 0.342 ± 0.060 | 1.01 ± 0.12 | 2950 |  |  |  |  |  | 
2 | piperamide synthase (PipBAHD1) (Piper nigrum) (protein, full-length cDNA from immature fruits, N-terminal His10 tag (pET-16b), E. coli LEMO21, IMAC) MASSQLEFNVERKQPELLGPAEPTPYELKELSDIDDQDGVRLFLTAIFIYPPPTKTSMPTRKTDPASDIRRGLSKAMVYYYPFAGRIREGPNRKLSVDCTGEGIVFCEADADIRLDGLGDVEVLRPPYPFIDKMTLGEGSAILGAPLVYVQVTRFACGGFIITGRFNHVMADAPGFTMFMKAAADLARGATVPMPLPVWERERYRSRVPPRVTFAHHEYMHVDDPPPRPTSEPWSLHSAFFTKADVATLRAQLPADLRKAATSFDIITACMWRCRVSALQYGPDEVVRLIVAVNSRTKFDPPLTGYYGNGLMLPAAVTEAGKLVGSDLGYAVELVREAKGKVTEEYVRSAADFLVLNGRVHFVVSNTFLVSDLRRLIDLANMDWGWGKAVSGGPVDVGENVISFLATSKNSAGEEGAVVPFCLPDSALGRFTSEVKKLVCFRPLENAAASNPDHGYMSRM |  |  |  |  | 8.69 ± 3.6 | 0.27 ± 0.02 | 31.1 | 0.196 ± 0.009 | 0.35 ± 0.01 | 1790
